Measurements published in patent US20220220185A1 (CELL NETWORKS, published 2022).

Columns and labels:
Sm-Gβ1 with untagged Gγ2 [1] = biological target: T1, Sm-Gβ1 with untagged Gγ2 (human, UniProt P62873 2-340; P59768 2-68); assay: NanoBiT split-luciferase complementation in HEK293 cells (NanoBiT-G12: Gα12-Lg, Sm-Gβ1, Gγ2; pairing from paragraph 252)
T1 construct: whole, on cells; also called Sm-Gβγ; SmBiT-fused Gβ1 subunit and native Gγ2 subunit
Description: (§1) To complement the inventive chimeric G-protein-based TGFα shedding assay, the inventors made an additional inventive assay in which dissociation of the Gα subunit from the Gβγ subunits, a critical process of G-protein activation, is measured via a luciferase complementation system. Bioluminescence Resonance Energy Transfer (BRET) between a Renilla luciferase-inserted Gα subunit and a GFP10-fused Gβ or Gγ subunit was previously developed to measure Gα-Gβγ dissociation (Gales et al., 2005). Here, they replaced the BRET pair with a split luciferase (NanoLuc Binary Technology; NanoBiT) (Dixon et al., 2016). […] They generated a series of Gα-Lg, Sm-Gβ and Sm-Gγ subunits and optimized a combination.
(§2) Plasmid transfection was performed in a 6-well plate with a mixture of 100 ng Gα-Lg-encoding plasmid, 500 ng Sm-Gβ-encoding plasmid, 500 ng untagged Gγ₂-encoding plasmid, 200 ng GPCR-encoding plasmid with or without 100 ng RIC8-encoding plasmid (per well, hereafter).

Sm-Gβ1 with untagged Gγ2 [2] = biological target: T1, Sm-Gβ1 with untagged Gγ2; assay: NanoBiT split-luciferase complementation in HEK293 cells (NanoBiT-Gq: Gαq-Lg, Sm-Gβ1, Gγ2; pairing from paragraph 252)
Description: as §1, §2

Sm-Gβ1 with untagged Gγ2 [3] = biological target: T1, Sm-Gβ1 with untagged Gγ2; assay: NanoBiT split-luciferase complementation in HEK293 cells (NanoBiT-Gs: Gαs-Lg, Sm-Gβ1, Gγ2; pairing from paragraph 252)
Description: as §1, §2

Sm-Gβ1 with untagged Gγ2 [4] = biological target: T1, Sm-Gβ1 with untagged Gγ2; assay: NanoBiT split-luciferase complementation in HEK293 cells (NanoBiT-G13: Gα13-Lg, Sm-Gβ1, Gγ2; pairing from paragraph 252)
Description: as §1, §2

T1 sequence (P62873 other isoform, or with tags, fused parts or gaps, chain 1 of 2): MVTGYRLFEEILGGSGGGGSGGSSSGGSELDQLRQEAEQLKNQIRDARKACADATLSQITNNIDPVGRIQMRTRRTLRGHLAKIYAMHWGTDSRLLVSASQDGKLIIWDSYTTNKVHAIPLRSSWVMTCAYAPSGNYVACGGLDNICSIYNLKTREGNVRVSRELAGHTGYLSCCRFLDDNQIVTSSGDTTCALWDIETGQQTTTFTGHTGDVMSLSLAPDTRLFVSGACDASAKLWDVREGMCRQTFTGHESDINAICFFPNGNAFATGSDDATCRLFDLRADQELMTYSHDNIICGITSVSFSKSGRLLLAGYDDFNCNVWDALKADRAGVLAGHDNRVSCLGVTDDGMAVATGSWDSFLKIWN
T1 sequence (P59768 2-68, chain 2 of 2): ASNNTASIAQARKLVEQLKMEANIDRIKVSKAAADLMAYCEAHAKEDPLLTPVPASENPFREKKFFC

B1: Gα12-Lg (other, human, UniProt Q03113 1-381, looked up)
chain: MSGVVRTLSRCLLPAEAGGARERRAGSGARDAEREARRRSRDIDALLARERRAVRRLVKILLLGAGESGKSTFLKQMRIIHGREFDQKALLEFRDTIFDNILKGSRVLVDARDKLGIPWQYSENEKHGMFLMAFENKAGLPVEPATFQLYVPALSALWRDSGIREAFSRRSEFQLGESVKYFLDNLDRIGQLNYFPSKQDILLARKATKGIVEHDFVIKKIPFKMVDVGGQRSQRQKWFQCFDGITSILFMVSSSEYDQVLMEDRRTNRLVESMNIFETIVNNKLFFNVSIILFLNKMDLLVEKVKTVSIKKHFPDFRGDPHRLEDVQRYLVQCFDRKRRNRSKPLFHHFTTAIDTENVRFVFHAVKDTILQENLKDIMLQ
notes: whole, on cells; the LgBiT insert is not placed; also called NanoBiT-G12 (Gα subunit); G12
Question: Does B1 bind (Sm-Gβ1 with untagged Gγ2 [1])?
Answer: binds

B2: Gαq-Lg (other, human, UniProt P50148 1-359, looked up)
chain: MTLESIMACCLSEEAKEARRINDEIERQLRRDKRDARRELKLLLLGTGESGKSTFIKQMRIIHGSGYSDEDKRGFTKLVYQNIFTAMQAMIRAMDTLKIPYKYEHNKAHAQLVREVDVEKVSAFENPYVDAIKSLWNDPGIQECYDRRREYQLSDSTKYYLNDLDRVADPAYLPTQQDVLRVRVPTTGIIEYPFDLQSVIFRMVDVGGQRSERRKWIHCFENVTSIMFLVALSEYDQVLVESDNENRMEESKALFRTIITYPWFQNSSVILFLNKKDLLEEKIMYSHLVDYFPEYDGPQRDAQAAREFILKMFVDLNPDSDKIIYSHFTCATDTENIRFVFAAVKDTILQLNLKEYNLV
notes: whole, on cells; the LgBiT insert is not placed; also called NanoBiT-Gq (Gα subunit); Gq
Question: Does B2 bind (Sm-Gβ1 with untagged Gγ2 [2])?
Answer: binds

B3: Gαs-Lg (other, human, UniProt P63092 2-394, looked up)
chain: GCLGNSKTEDQRNEEKAQREANKKIEKQLQKDKQVYRATHRLLLLGAGESGKSTIVKQMRILHVNGFNGEGGEEDPQAARSNSDGEKATKVQDIKNNLKEAIETIVAAMSNLVPPVELANPENQFRVDYILSVMNVPDFDFPPEFYEHAKALWEDEGVRACYERSNEYQLIDCAQYFLDKIDVIKQADYVPSDQDLLRCRVLTSGIFETKFQVDKVNFHMFDVGGQRDERRKWIQCFNDVTAIIFVVASSSYNMVIREDNQTNRLQEALNLFKSIWNNRWLRTISVILFLNKQDLLAEKVLAGKSKIEDYFPEFARYTTPEDATPEPGEDPRVTRAKYFIRDEFLRISTASGDGRHYCYPHFTCAVDTENIRRVFNDCRDIIQRMHLRQYELL
notes: whole, on cells; the LgBiT insert is not placed; also called NanoBiT-Gs (Gα subunit); Gs
Question: Does B3 bind (Sm-Gβ1 with untagged Gγ2 [3])?
Answer: binds

B4: Gα13-Lg (other, human, UniProt Q14344 1-377, looked up)
chain: MADFLPSRSVLSVCFPGCLLTSGEAEQQRKSKEIDKCLSREKTYVKRLVKILLLGAGESGKSTFLKQMRIIHGQDFDQRAREEFRPTIYSNVIKGMRVLVDAREKLHIPWGDNSNQQHGDKMMSFDTRAPMAAQGMVETRVFLQYLPAIRALWADSGIQNAYDRRREFQLGESVKYFLDNLDKLGEPDYIPSQQDILLARRPTKGIHEYDFEIKNVPFKMVDVGGQRSERKRWFECFDSVTSILFLVSSSEFDQVLMEDRLTNRLTESLNIFETIVNNRVFSNVSIILFLNKTDLLEEKVQIVSIKDYFLEFEGDPHCLRDVQKFLVECFRNKRRDQQQKPLYHHFTTAINTENIRLVFRDVKDTILHDNLKQLMLQ
notes: whole, on cells; the LgBiT insert is not placed; also called NanoBiT-G13 (Gα subunit); G13
Question: Does B4 bind (Sm-Gβ1 with untagged Gγ2 [4])?
Answer: binds
